Assay results from IntAct's records for PubMed 20837657.

B1: Segment polarity protein dishevelled (Drosophila melanogaster (Fruit fly)), P51140 (parent)
chain: MDADRGGGQETKVIYHIDDETTPYLVKIPIPSAQVTLRDFKLVLNKQNNNYKYFFKSMDADFGVVKEEIADDSTILPCFNGRVVSWLVSADGTNQSDNCSELPTSECELGMGLTNRKLQQQQQQHQQQQQQQQQQHQQQQQQQQQQVQPVQLAQQQQQQVLHHQKMMGNPLLQPPPLTYQSASVLSSDLDSTSLFGTESELTLDRDMTDYSSVQRLQVRKKPQRRKKRAPSMSRTSSYSSITDSTMSLNIITVSINMEAVNFLGISIVGQSNRGGDGGIYVGSIMKGGAVALDGRIEPGDMILQVNDVNFENMTNDEAVRVLREVVQKPGPIKLVVAKCWDPNPKGYFTIPRTEPVRPIDPGAWVAHTQALTSHDSIIADIAEPIKERLDQNNLEEIVKAMTKPDSGLEIRDRMWLKITIPNAFIGADAVNWVLENVEDVQDRREARRIVSAMLRSNYIKHTVNKLTFSEQCYYVVNEERNPNLLGRGHLHPHQLPHGHGGHALSHADTESITSDIGPLPNPPIYMPYSATYNPSHGYQPIQYGIAERHISSGSSSSDVLTSKDISASQSDITSVIHQANQLTIAAHGSNKSSGSSNRGGGGGGGGGGNNTNDQDVSVFNYVL

Variants of: B1
Conditions: with abl_drome Abl

| Variant | effect of a mutation on the interaction |
| --- | --- |
| Y473F | decreasing interaction strength |
